Source: article PMC10412585 (2023)

Key:
[1] = molecular target: GTF3C5_(293-301) HLA-E single chain trimer (soluble, biotinylated) (human, biotin (AviTag)); test: SPR; weak binder not approaching saturation, inexact
[2] = molecular target: BFAR_(263-271) HLA-E single chain trimer (soluble, biotinylated) (human, biotin (AviTag)); test: SPR
[3] = molecular target: … peptide HLA-E single chain trimer (soluble, biotinylated) (human, biotin (AviTag)); test: SPR
[4] = molecular target: PISD_(55-63) HLA-E single chain trimer (soluble, biotinylated) (human, biotin (AviTag)); test: SPR
[5] = molecular target: AKAP6_(388-396) HLA-E single chain trimer (soluble, biotinylated) (human, biotin (AviTag)); test: SPR
[6] = molecular target: CREB3L1_(419-427) HLA-E single chain trimer (soluble, biotinylated) (human, biotin (AviTag)); test: SPR

Kd [1] [µM]	Kd [2] [µM]	Kd [3] [µM]	Kd [4] [µM]	Kd [5] [µM]	Kd [6] [µM]	Binder
~92.4	~1.8	~23.8	~16	~15.6	~9.8	CD94/NKG2C single-chain fusion protein (human NKG2C ectodomain - GGSGGS - human CD94 ectodomain), produced in Hi5 cells for SPR (receptor) not shown
~28.1	~0.8	~8.9	~12.1	~4.1	~3.3	CD94/NKG2A single-chain fusion protein (human NKG2A ectodomain - GGSGGS - human CD94 ectodomain), produced in Hi5 cells for SPR (receptor) not shown
